B1: INIP (INTS3 and NABP interacting protein) (other, UniProt Q9NRY2 2-104, looked up)
chain: AANSSGQGFQNKNRVAILAELDKEKRKLLMQNQSSTNHPGASIALSRPSLNKDFRDHAEQQHIAAQQKAALQHAHAHSSGYFITQDSAFGNLILPVLPRLDPE
B2: SAGE1 (Sarcoma antigen 1), full-length protein in cells (other)
chain: MQASPLQTSQPTPPEELHAAAYVFTNDGQQMRSDEVNLVATGHQSKKKHSRKSKRHSSSKRRKSMSSWLDKQEDAAVTHSICEERINNGQPVADNVLSTAPPWPDATIAHNIREERMENGQSRTDKVLSTAPPQLVHMAAAGIPSMSTRDLHSTVTHNIREERMENGQPQPDNVLSTGPTGLINMAATPIPAMSARDLYATVTHNVCEQKMENVQPAPDNVLLTLRPRRINMTDTGISPMSTRDPYATITYNVPEEKMEKGQPQPDNILSTASTGLINVAGAGTPAISTNGLYSTVPHNVCEEKMENDQPQPNNVLSTVQPVIIYLTATGIPGMNTRDQYATITHNVCEERVVNNQPLPSNALSTVLPGLAYLATADMPAMSTRDQHATIIHNLREEKKDNSQPTPDNVLSAVTPELINLAGAGIPPMSTRDQYATVNHHVHEARMENGQRKQDNVLSNVLSGLINMAGASIPAMSSRDLYATITHSVREEKMESGKPQTDKVISNDAPQLGHMAAGGIPSMSTKDLYATVTQNVHEERMENNQPQPSYDLSTVLPGLTYLTVAGIPAMSTRDQYATVTHNVHEEKIKNGQAASDNVFSTVPPAFINMAATGVSSMSTRDQYAAVTHNIREEKINNSQPAPGNILSTAPPWLRHMAAAGISSTITRDLYVTATHSVHEEKMTNGQQAPDNSLSTVPPGCINLSGAGISCRSTRDLYATVIHDIQEEEMENDQTPPDGFLSNSDSPELINMTGHCMPPNALDSFSHDFTSLSKDELLYKPDSNEFAVGTKNYSVSAGDPPVTVMSLVETVPNTPQISPAMAKKINDDIKYQLMKEVRRFGQNYERIFILLEEVQGSMKVKRQFVEFTIKEAARFKKVVLIQQLEKALKEIDSHCHLRKVKHMRKR
notes: Endogenous protein in HuTu 80, K562, U2OS and KYSE30 cells (IP-MS); also called endogenous SAGE1; ectopically expressed SAGE1
B3: mutant SAGE1I3BD (other)
chain: AMAKKINDDIKYQLAKEVRRAGANYERIFILLEEVQGSMKVKRQFVEFTIKEAAAAAKVVLIQQLEKALKEIDSHCHLRKVKHMRKR
notes: also called mutant SAGE1I3BD (alanine substitutions of six key interface residues)

In assay [1] the target is B2. Description: IP of the endogenous SAGE1 complex with anti-SAGE1 antibody (HuTu 80 and other SAGE1-expressing cancer cell lines), MS. The source says:
(§1) To gain mechanistic insight into SAGE1 function in tumorigenesis, we performed a proteomic analysis of the endogenous SAGE1 complex pulled down in HuTu 80 cells by an anti-SAGE1 antibody. The complex was resolved by SDS-PAGE, visualized by silver staining, and subjected to MS analysis (FIG. 6A and FIGS. 14A-14D). A number of proteins previously linked to transcriptional regulation were reproducibly identified as high-confidence SAGE1 interactors, including CBP (CRBP-binding protein), TLE (Groucho/Transducin-Like Enhancer of Split) proteins, INTS3 (a component of the Integrator complex) and INTS3-binding partners NABP (Nucleic Acid Binding Protein) and INIP (INTS3 and NABP interacting protein) (FIG. 6B). […] The interactions between SAGE1 and these proteins were further confirmed by co-immunoprecipitation (co-IP) analysis (FIG. 6C and FIG. 6D).
(§2) For IP, 1×10^7 cells were lysed in lysis buffer (20 mM Tris-HCl, 150 mM NaCl, 10% Glycerol, 0.5% TritonX-100, 1 mM EDTA, 1 mM EGTA, pH7.4) supplemented with protease inhibitor cocktail (Sigma-Aldrich, #B14001), incubated in 4° C. for 10 min and sonicated by Bioruptor Plus (Diagenode) (5-10% amplitude/power, ON 5 sec-OFF 5 sec) for 1 min. After centrifugation (14,000 rpm, 15 min, 4° C., 1 mg of supernatants were incubated with 5 μg of rabbit anti-SAGE1 polyclonal antibody (Novus Biologicals, #NBP1-84355, or Abcam, #ab233388) and rabbit anti- […]

In assay [2] the target is INTS3 (integrator complex subunit 3), endogenous full-length protein (human, UniProt Q68E01 2-1043). Kind of assay: IP-MS with anti-INTS3 antibody in SAGE1-overexpressing 293T cells. Here is the method:
Given that SAGE1I3BD highly resembles INTS6I3BD, it is likely that they interact with INTS3CTD in a mutually exclusive manner. To test this idea, we mixed purified INTS3CTD-INTS6I3BD complex with GST-tagged SAGE1I3BD and conducted a GST-pull-down analysis.
For IP, 1×10^7 cells were lysed in lysis buffer (20 mM Tris-HCl, 150 mM NaCl, 10% Glycerol, 0.5% TritonX-100, 1 mM EDTA, 1 mM EGTA, pH7.4) supplemented with protease inhibitor cocktail (Sigma-Aldrich, #B14001), incubated in 4° C. for 10 min and sonicated by Bioruptor Plus (Diagenode) (5-10% amplitude/power, ON 5 sec-OFF 5 sec) for 1 min. After centrifugation (14,000 rpm, 15 min, 4° C., 1 mg of supernatants were incubated with 5 μg of rabbit anti-SAGE1 polyclonal antibody (Novus Biologicals, #NBP1-84355, or Abcam, #ab233388) and rabbit anti-
INTS3 polyclonal antibody (Novus Biologicals, #NBP1-19091) for 16 hours respectively. Next day, 20 μL of Protein G beads (Millipore, #LSKMAGG02) were added into each tube and incubated for 3 more hours. Then beads were harvested and washed for three times with lysis buffer and eluted by 0.2 M Glycine (pH 2.2).

The target of assay [3] is T1, CBP (CRBP-binding protein) (UniProt Q92793 2-2442, limits assumed).
T1 construct: also called CREBBP
T1 sequence (Q92793 2-2442 limits assumed): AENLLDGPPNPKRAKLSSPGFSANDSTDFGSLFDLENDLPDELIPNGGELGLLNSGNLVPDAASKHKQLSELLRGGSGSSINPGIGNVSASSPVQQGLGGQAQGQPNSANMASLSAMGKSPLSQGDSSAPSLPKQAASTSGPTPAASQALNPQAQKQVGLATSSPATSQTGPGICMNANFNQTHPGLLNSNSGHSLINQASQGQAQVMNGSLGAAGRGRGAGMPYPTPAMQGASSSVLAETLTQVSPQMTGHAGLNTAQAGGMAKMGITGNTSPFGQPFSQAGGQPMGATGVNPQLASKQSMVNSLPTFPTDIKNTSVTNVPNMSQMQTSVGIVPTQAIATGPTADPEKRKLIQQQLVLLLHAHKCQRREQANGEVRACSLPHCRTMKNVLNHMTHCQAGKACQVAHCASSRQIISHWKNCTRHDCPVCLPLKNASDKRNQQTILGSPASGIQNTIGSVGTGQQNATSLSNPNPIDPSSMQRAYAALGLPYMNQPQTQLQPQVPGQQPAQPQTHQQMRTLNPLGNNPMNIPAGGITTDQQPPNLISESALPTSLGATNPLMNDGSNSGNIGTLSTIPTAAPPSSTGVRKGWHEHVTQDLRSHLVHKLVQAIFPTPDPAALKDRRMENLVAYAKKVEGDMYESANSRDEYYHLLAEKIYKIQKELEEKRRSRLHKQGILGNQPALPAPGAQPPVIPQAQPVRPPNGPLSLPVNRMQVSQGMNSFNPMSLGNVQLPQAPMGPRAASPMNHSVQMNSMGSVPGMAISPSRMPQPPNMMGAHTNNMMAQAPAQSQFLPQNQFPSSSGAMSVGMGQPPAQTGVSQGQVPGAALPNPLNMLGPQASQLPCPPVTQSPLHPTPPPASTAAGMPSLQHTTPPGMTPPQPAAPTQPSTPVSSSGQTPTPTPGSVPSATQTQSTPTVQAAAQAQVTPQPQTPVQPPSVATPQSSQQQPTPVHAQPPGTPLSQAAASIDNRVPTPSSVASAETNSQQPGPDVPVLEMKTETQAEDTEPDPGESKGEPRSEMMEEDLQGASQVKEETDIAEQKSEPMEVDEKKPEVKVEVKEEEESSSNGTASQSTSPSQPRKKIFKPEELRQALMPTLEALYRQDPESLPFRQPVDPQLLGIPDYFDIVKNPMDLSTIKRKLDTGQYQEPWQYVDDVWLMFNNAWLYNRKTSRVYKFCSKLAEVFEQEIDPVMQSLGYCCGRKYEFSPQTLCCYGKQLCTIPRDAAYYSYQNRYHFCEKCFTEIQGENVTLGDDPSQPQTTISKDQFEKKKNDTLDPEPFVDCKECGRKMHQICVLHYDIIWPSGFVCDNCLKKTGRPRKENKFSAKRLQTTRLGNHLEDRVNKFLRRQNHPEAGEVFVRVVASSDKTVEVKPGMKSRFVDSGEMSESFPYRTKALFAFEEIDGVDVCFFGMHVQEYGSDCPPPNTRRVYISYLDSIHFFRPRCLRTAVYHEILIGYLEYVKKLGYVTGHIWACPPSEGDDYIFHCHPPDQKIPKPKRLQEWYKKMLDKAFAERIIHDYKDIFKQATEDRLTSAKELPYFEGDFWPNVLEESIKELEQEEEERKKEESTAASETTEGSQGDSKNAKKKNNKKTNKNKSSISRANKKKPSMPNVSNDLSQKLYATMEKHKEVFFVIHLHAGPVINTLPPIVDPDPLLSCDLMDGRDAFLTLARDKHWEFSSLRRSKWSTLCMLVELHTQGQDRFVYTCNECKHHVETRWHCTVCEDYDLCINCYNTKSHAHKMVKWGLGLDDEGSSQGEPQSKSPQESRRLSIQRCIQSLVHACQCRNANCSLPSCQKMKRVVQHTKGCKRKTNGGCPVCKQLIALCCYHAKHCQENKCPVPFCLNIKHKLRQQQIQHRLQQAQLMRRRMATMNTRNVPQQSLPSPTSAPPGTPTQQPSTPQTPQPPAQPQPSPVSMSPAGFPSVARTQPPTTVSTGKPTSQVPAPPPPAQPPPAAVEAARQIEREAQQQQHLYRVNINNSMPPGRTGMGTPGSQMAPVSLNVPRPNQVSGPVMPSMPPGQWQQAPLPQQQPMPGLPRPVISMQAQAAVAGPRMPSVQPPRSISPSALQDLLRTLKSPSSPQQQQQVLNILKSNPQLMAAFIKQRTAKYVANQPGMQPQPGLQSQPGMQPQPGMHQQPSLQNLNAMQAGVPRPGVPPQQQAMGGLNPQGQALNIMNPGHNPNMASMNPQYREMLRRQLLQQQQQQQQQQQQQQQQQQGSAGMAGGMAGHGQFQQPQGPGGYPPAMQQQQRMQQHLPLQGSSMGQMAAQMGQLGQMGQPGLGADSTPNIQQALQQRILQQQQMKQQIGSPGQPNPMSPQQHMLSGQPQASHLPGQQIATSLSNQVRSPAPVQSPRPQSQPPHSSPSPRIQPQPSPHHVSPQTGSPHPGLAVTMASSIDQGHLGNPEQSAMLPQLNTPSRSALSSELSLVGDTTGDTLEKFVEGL
Kind of assay: IP of the endogenous SAGE1 complex with anti-SAGE1 antibody (HuTu 80 and other SAGE1-expressing cancer cell lines), MS.
From the text: as §1, §2

For assay [4], the target named is T2, INTS3CTD (C-terminal domain of INTS3, residues 572-978) (human, UniProt Q68E01 573-979).
T2 construct: also called INTS3CTD dimer
Kind of assay: ITC. Here is the method: The equilibrium dissociation constant of the SAGE1I3BD-INTS3CTD interaction was determined using a MicroCal iTC200 calorimeter (Malvern). The binding enthalpy was measured at 16° C. in 25 mM Tris-HCl pH 8.0, 150 mM NaCl and 5 mM MgCl2. Two independent experiments were performed. ITC data were subsequently analyzed and fitted using Origin 7 software (OriginLab).
All statistical tests of experimental results were performed using the GraphPad Prism 7 unless noted. The statistical significance was calculated via unpaired two-tailed Student's t test. The dissociation constants (Kd) in ITC experiments were calculated using the Origin 7 software as mean±standard error from two independent experiments with a single site-specific binding model. The statistical analysis of in vivo experiments data was performed using nonparametric Mann-Whitney test. Results were represented as mean±standard deviation unless noted and p<0.05 was considered statistically significant.

Chain of INTS3 (integrator complex subunit 3), endogenous full-length protein (Q68E01 2-1043 limits assumed, one chain of several): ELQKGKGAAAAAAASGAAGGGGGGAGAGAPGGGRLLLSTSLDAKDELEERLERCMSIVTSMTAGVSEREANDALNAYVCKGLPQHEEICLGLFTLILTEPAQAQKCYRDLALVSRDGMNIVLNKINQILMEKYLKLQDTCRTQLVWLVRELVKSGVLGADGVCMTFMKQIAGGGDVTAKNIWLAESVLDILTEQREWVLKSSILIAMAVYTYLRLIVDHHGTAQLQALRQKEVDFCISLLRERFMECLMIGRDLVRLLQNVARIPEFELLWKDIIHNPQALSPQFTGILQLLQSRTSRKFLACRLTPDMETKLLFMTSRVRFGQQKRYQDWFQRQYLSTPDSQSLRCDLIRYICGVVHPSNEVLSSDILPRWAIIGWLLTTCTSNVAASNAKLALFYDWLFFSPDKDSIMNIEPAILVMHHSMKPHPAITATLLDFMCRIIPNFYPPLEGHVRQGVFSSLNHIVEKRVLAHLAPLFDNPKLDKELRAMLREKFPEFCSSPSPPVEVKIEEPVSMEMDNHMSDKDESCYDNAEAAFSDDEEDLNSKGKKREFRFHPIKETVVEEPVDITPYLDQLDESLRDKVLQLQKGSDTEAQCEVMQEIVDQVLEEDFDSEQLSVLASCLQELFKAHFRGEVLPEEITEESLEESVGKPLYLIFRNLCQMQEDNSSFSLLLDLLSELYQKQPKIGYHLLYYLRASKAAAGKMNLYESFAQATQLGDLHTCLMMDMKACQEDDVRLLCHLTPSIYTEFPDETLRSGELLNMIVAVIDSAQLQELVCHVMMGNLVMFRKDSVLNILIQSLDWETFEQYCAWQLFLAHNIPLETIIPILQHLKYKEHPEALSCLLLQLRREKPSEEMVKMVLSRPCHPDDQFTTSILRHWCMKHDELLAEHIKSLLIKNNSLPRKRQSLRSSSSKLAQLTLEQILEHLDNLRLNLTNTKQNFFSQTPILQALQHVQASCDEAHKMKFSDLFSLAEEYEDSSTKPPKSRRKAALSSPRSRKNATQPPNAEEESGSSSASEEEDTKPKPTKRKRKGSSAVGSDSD

With B1, the binding result in assay [1] is listed as “binds”. For B2, the binding result in assay [2] and in assay [3] was “binds” throughout. For B3, the binding result in assay [4] is on record as “no binding”.

(Values after patent publication US20230031980A1 (SHANGHAI NINTH PEOPLE S HOSPITAL SHANGHAI JIAO TONG …, published 2023).)
